In PMC4137956:

Legend:
Assay in all cases: SPR; biotinylated SIRPα variants bound to streptavidin immobilised on a BIAcore CM5 chip, BIAcore 3000, 37°; dilutions of monomeric recombinant CD47 extracellular domain passed over; affinity from equilibrium binding
[1] = biological target: NOD mouse SIRPα, N-terminal domain (d1), wild type (mouse)
[2] = biological target: NOD mouse SIRPα + SE mutant, N-terminal domain (d1) (mouse)
[3] = biological target: NOD mouse SIRPα + SE mutant, three extracellular IgSF domains (3d) (mouse)
[4] = biological target: human SIRPα V2, three extracellular IgSF domains (3d) (human) (UniProt P78324)

Chain of human CD47 IgSF domain, monomeric recombinant extracellular domain (Q08722 19-136): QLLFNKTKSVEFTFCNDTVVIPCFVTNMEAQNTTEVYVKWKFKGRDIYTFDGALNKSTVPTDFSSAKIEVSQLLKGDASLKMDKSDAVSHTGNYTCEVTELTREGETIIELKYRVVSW
Chain of NOD mouse SIRPα, N-terminal domain (d1), wild type (mouse) (P97797 1-148): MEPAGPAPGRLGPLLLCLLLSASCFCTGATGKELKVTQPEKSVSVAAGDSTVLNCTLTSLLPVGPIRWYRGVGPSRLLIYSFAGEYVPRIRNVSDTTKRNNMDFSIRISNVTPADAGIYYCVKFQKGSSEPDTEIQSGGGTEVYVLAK
Chain of mouse CD47 IgSF domain, monomeric recombinant extracellular domain (Q61735 19-139): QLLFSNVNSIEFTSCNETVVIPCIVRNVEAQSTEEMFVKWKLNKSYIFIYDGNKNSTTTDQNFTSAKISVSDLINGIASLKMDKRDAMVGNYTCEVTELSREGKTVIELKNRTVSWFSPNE

| Kd [1] | Kd [2] | Kd [3] | Kd [4] | Substance |
| --- | --- | --- | --- | --- |
| 4.7 µM | 11.8 µM | 8.6 µM | > 30 µM | mouse CD47 IgSF domain, monomeric recombinant extracellular domain (from UniProt Q61735 19-139) (domain or fragment) |
| 0.08 µM | 9.4 µM | 7.6 µM | 0.6 µM | human CD47 IgSF domain, monomeric recombinant extracellular domain (from UniProt Q08722-1 19-136) (domain or fragment) |
